Test results as given in patent US20090010966A1.

Experiments:
[1] = target: elongation factor 2 (EF2) (UniProt P55823)
[2] = target: elongation factor 2 (EF2) (rabbit) (UniProt P55823); assay: cell-based or functional assay

| Substance | Relative IVTT score (ratio (IC50 WT / IC50 mutant)) [1] | inhibition of transcription/translation of T7-luc plasmid (IVTT) [2] |
| --- | --- | --- |
| DT382 V28S | 3.61 |  |
| control DT(ΔR), truncated DT comprising the C and I domains only (from UniProt P00588 33-414) (enzyme) |  | 90% |
